Experimental findings from article PMC8998802 are described below.

The target in this assay is CaVβ2a residues 203 to 425, His-tagged. The experiment in a line: MST.

One may read the Kd as the equilibrium constant for the complex coming apart. As to AID-CaV2.2 peptide, the Kd is 12 to 208 nM. To AID-CaV2.1 peptide belongs 18.3 to 93 nM.
